The results in this text go back to paper doi:10.1101/2021.06.10.447992 (bioRxiv, 2021).

Positions count from the first letter of the chain named. Names may count otherwise.

The data set concerns the molecule itself. Kind of data set: AUC.

B1: Y137C COA7 pathogenic variant, recombinant, GST-free (natural protein, human)
chain: GPLGSMAGMVDFQDEEQVKSFLENMEVECNYHCYHEKDPDGCYRLVDYLEGIRKNFDEAAKVLKFNCEENQHSDSCYKLGAYYVTGKGGLTQDLKAAARCFLMACEKPGKKSIAACHNVGLLAHDGQVNEDGQPDLGKARDCYTRACDGGYTSSCFNLSAMFLQGAPGFPKDMDLACKYSMKACDLGHIWACANASRMYKLGDGVDKDEAKAEVLKNRAQQLHKEQQKGVQPLTFG
Regarding B1, the binding result was “binds”.

B2: Cytochrome c oxidase assembly factor 7 (COA7), recombinant, GST-free (natural protein, human)
chain: B1 chain with C142Y
With B2, the stoichiometry N (commonly a count of units in the complex or per binding partner) stood at 2.
